Measured values as given in paper PMC10397247.
Values belong to the binder of their own block, whether it stands above or below them.

What was measured:
Assay in all cases: two-hybrid library CCNG1;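 note: natural log of median RNA to DNA barcode read ratio; higher means stronger binding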
[1] = target: T1, 4H2618-bA
T1 chain: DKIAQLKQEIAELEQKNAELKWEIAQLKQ

[2] = target: T2, 4H2667-bA
T2 chain: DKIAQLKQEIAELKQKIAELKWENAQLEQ

[3] = target: T3, 4H2729-bA
T3 chain: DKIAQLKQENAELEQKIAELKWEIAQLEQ

[4] = target: T4, 4H3112-bA
T4 chain: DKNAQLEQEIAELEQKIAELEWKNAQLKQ

[5] = target: T5, 4H3185-bA
T5 chain: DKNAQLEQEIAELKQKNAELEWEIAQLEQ

[6] = target: T6, 4H3189-bA
T6 chain: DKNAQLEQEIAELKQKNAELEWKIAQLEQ

[7] = target: T7, 4H331-bA
T7 chain: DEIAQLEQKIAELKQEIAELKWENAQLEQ

[8] = target: T8, 4H3354-bA
T8 chain: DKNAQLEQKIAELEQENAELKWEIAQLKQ

[9] = target: T9, 4H338-bA
T9 chain: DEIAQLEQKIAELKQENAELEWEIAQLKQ

[10] = target: T10, 4H3427-bA
T10 chain: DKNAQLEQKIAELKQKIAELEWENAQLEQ

[11] = target: T11, 4H3782-bA
T11 chain: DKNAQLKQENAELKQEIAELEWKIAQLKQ

[12] = target: T12, 4H3855-bA
T12 chain: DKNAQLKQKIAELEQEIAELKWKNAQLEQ

[13] = target: T13, 4H4001-bA
T13 chain: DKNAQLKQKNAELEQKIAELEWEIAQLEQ

[14] = target: T14, 4H454-bA
T14 chain: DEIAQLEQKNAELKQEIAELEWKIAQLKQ

[15] = target: T15, 4H568-bA
T15 chain: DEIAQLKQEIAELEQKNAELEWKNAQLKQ

[16] = target: T16, 4H607-bA
T16 chain: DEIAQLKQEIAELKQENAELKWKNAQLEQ

[17] = target: T17, 4H687-bA
T17 chain: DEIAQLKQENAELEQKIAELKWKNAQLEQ

[18] = target: T18, 4H717-bA
T18 chain: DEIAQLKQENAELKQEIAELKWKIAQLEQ

[19] = target: T19, 4H72-bA
T19 chain: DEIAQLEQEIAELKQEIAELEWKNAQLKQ

[20] = target: T20, 4H754-bA
T20 chain: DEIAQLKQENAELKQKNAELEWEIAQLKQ

[21] = target: T21, 4H797-bA
T21 chain: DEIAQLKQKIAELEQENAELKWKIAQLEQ

[22] = target: T22, 4H883-bA
T22 chain: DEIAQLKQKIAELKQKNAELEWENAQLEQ

[23] = target: T23, 4H908-bA
T23 chain: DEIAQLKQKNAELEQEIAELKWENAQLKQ

[24] = target: T24, 4H918-bA
T24 chain: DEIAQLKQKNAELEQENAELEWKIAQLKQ

[25] = target: T25, 4H953-bA
T25 chain: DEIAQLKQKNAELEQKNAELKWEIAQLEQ

[26] = target: T26, 4H967-bA
T26 chain: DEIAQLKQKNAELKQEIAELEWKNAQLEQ

[27] = target: T27, 4H2473-bN
T27 chain: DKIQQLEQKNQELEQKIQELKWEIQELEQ

[28] = target: T28, 4H2503-bN
T28 chain: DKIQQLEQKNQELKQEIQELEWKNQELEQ

[29] = target: T29, 4H2588-bN
T29 chain: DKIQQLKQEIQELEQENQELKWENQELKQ

[30] = target: T30, 4H2673-bH
T30 chain: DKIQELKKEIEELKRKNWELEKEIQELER

[31] = target: T31, 4H2692-bN
T31 chain: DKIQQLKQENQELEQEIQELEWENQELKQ

[32] = target: T32, 4H2717-bN
T32 chain: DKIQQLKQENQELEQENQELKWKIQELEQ

[33] = target: T33, 4H2839-bN
T33 chain: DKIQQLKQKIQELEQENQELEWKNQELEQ

[34] = target: T34, 4H2915-bN
T34 chain: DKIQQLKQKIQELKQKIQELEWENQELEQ

[35] = target: T35, 4H3057-bN
T35 chain: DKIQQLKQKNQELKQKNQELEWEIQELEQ

[36] = target: T36, 4H319-bN
T36 chain: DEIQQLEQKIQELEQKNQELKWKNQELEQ

[37] = target: T37, 4H3277-bN
T37 chain: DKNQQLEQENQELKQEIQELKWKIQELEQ

[38] = target: T38, 4H348-bN
T38 chain: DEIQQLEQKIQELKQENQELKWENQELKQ

[39] = target: T39, 4H40-bN
T39 chain: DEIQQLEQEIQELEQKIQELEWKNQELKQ

[40] = target: T40, 4H477-bN
T40 chain: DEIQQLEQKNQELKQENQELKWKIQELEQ

[41] = target: T41, 4H492-bN
T41 chain: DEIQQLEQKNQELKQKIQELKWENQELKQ

[42] = target: T42, 4H741-bN
T42 chain: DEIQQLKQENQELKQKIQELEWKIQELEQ

[43] = target: T43, P4bHq
T43 chain: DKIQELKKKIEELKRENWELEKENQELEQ

[44] = target: T44, P5bHq
T44 chain: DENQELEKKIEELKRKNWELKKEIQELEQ

[45] = target: T45, P6bHq
T45 chain: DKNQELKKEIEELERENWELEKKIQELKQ

[46] = target: T46, P7bHq
T46 chain: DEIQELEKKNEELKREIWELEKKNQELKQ

[47] = target: T47, P8bHq
T47 chain: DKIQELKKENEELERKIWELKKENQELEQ

[48] = target: T48, P9bHq
T48 chain: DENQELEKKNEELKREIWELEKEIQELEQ

- interaction score [1]: 0.484
- interaction score [2]: 0.0194
- interaction score [3]: 1.35
- interaction score [4]: -0.804
- interaction score [5]: 0.858
- interaction score [6]: -2.6
- interaction score [7]: 0.866
- interaction score [8]: 1.21
- interaction score [9]: 1.02
- interaction score [10]: 0.72
- interaction score [11]: -0.735
- interaction score [12]: -0.835
- interaction score [13]: 0.142
- interaction score [14]: 0.854
- interaction score [15]: -0.965
- interaction score [16]: -1.07
- interaction score [17]: 0.769
- interaction score [18]: -1.08
- interaction score [19]: 0.102
- interaction score [20]: -0.396
- interaction score [21]: 0.0328
- interaction score [22]: 0.137
- interaction score [23]: -0.916
- interaction score [24]: 1.61
- interaction score [25]: -1.3
- interaction score [26]: -0.631
Binder: DKIAQLKQEIAELEQKNAELKWEIAQLKQ [4H2618-bA]

- interaction score [27]: 0.273
- interaction score [28]: -1.11
- interaction score [29]: -1.58
- interaction score [30]: 0.46
- interaction score [31]: -0.666
- interaction score [32]: -2.13
- interaction score [33]: -1.21
- interaction score [34]: 0.258
- interaction score [35]: -0.442
- interaction score [36]: -0.961
- interaction score [37]: -1.47
- interaction score [38]: -0.231
- interaction score [39]: -0.598
- interaction score [40]: -0.81
- interaction score [41]: -0.992
- interaction score [42]: -1.72
Binder: DKIQQLEQKNQELEQKIQELKWEIQELEQ [4H2473-bN]

- interaction score [43]: 1.75
- interaction score [44]: 1.1
- interaction score [45]: -0.227
- interaction score [46]: 0.482
- interaction score [47]: 0.414
- interaction score [48]: -0.595
Binder: DEIQELEKEIEELERKNWELKKKNQELKQ [P3bHq]
